From patent US12545899B2, “Luciferase enzymes for use with thermostable luciferins in bioluminescent assays” (Promega Corporation, priority 2018, dated 2026) come the findings set out here.

Data set [1] is described as follows: Luminescence at 1 mM D/L-luciferin (Table 11). The data set is classed as biochemical. Particulars: 1 mM substrate, 1 mM ATP. From the text:
(§1) Tables 10 and 11 include representative results of kinetic analysis of the thermostable variants with D/L luciferin, CS0333, and CS0280. […] MK0135 and MK0137 have amino acid substitutions that improve thermostability relative to MK0133 and MK0134, respectively, while retaining activity on the luciferin analogs CS0333 and CS0280.

Data set [2] is described as follows: Kinetic analysis of thermostable variants with CS0280 (Tables 13, 14). The format is biochemical. Conditions: 2 mM ATP.
Data set [3] in a line: Differential scanning fluorimetry (DSF) analysis. The data set is classed as physicochemical. Particulars: Table 9B. In outline: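 Thermal melt with 5× final Sypro Orange: ramp 1° C/min from 30 to 95° C, reading each 60 s, derivative of fluorescence plotted by temperature. Luciferase variants were in 20 mM HEPES pH 7.5, 200 mM NaCl, 1 mM EDTA; other enzymes in 50 mM HEPES pH 7.5, 100 mM NaCl, 2 mM EDTA.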
Background: DSF heats the sample and reads unfolding from a dye or from intrinsic fluorescence.

Data set [4] is described as follows: Kinetic analysis of thermostable variants with D/L-luciferin (Tables 13, 14). The format is biochemical. Conditions: 2 mM ATP.
Data set [5] in a line: Kinetic analysis of thermostable variants with CS0333 (Tables 13, 14). The format is biochemical. Conditions: 2 mM ATP.
Data set [6] can be described thus: Kinetic analysis of thermostable variants with D/L-luciferin (Table 10). The format is biochemical. On the procedure:
(§2) Experiments were also conducted to evaluate the activities (i.e. Vmax and Km) of the various thermostable luciferase variants of Ppe (SEQ ID NO: 1) described above.
as §1

Data set [7] in a line: Luminescence at 1 mM CS0333 (Table 11). Conditions: 1 mM substrate, 1 mM ATP. The format is biochemical.
Excerpt: as §1

Data set [8] in a line: Kinetic analysis of thermostable variants with CS0333 (Table 10). The data set is classed as biochemical. As to the method:
as §2, §1

A short description of data set [9]: Kinetic analysis of thermostable variants with CS0280 (Table 10). The format is biochemical. On the procedure: as §2, §1
Data set [10] is described as follows: Luminescence at 1 mM CS0280 (Table 11). The format is biochemical. Particulars: 1 mM substrate, 1 mM ATP.
Excerpt: as §1

Changes are numbered by the printed parent chain. Numbers in names are those of the source.

B1: MK0137: SEQ ID NO: 105; H244W+S193A+N228D+L305F+S306P+I109V+C38R+F55I+Y108F+A316W+Y339M+T342S+V348I (protein)
chain: MADKNILYGPEPFYPLEDGTAGEQMFDALSRYAAIPGRIALTNAHTKENVLYEEILKLSCRLAESFKKYGLKQNDTIAVCSENSLQFFLPVIASLYLGIIVAPVNDKFVERELIHSLGIVKPRIVFCSKNTFQKVLNVKSKLKSIETIIILDLNEDLGGYQCLNNFISQNSDSNLDVKKFKPYSFNRDDQVAAIMFSSGTTGLPKGVMLTHKNIVARFSIAKDPTFGDAINPTSAILTVIPFHWGFGMMTTLGYFTCGFRVVLMHTFEEKLFLQSLQDYKVESTLLVPTLMAFLAKSALVEKYDFPHLKEIASGGWPLSKEIGEMVKKRFKLNFVRQGMGLTEITSAVLITPKGDAKPGSTGKIVPLHAVKVVDPTTGKILGPNEPGELYFKGPMKMKGYYNNEEATKAIIDNDGWLRSGDIAYYDNDGHFYIVDRLKSLIKYKGYQVAPAEIEGILLQHPYIVDAGVTGIPDEAAGELPAAGVVVQTGKYLNEQIVQDYVASQVSTAKWLRGGVKFLDEIPKGSTGKIDRKVLRQMLEKHTNGHHHHHHHH
On to B1, for which, in data set [1] (BrightGlo Buffer), the “Vmax (RLU) D/L-luciferin BrightGlo Buffer” value is 326,347 RLU. Further, in [1] (Detection Reagent Buffer), the “Vmax (RLU) D/L-luciferin Detection Reagent Buffer” value was 48,315 RLU. Besides, the Michaelis-Menten constant (Km) (commonly the concentration of substrate that gives half-maximal velocity) amounted to 4.08 µM in data set [2] (BrightGlo Buffer); 535 µM in data set [2] (Detection Reagent Buffer); 0.0835 µM in data set [4] (BrightGlo Buffer); 0.306 µM in data set [4] (Detection Reagent Buffer); 4.27 µM in [5] (BrightGlo Buffer); 18.8 µM in data set [5] (Detection Reagent Buffer). Also, the Km was found to be 0.0368 µM in [6] (BrightGlo Buffer); 0.196 µM in [6] (Detection Reagent Buffer); 7.17 µM in data set [8] (BrightGlo Buffer); 80.5 µM in data set [8] (Detection Reagent Buffer); 2.92 µM in data set [9] (BrightGlo Buffer); 18.9 µM in data set [9] (Detection Reagent Buffer). Also, the “Vmax (RLU)” value in data set [2] (BrightGlo Buffer) was 825,876 RLU; in data set [2] (Detection Reagent Buffer), 88,972 RLU; in [4] (BrightGlo Buffer), 253,978 RLU; in data set [4] (Detection Reagent Buffer), 29,013 RLU; in data set [5] (BrightGlo Buffer), 3,236,246 RLU; in data set [5] (Detection Reagent Buffer), 668,831 RLU. The “Vmax (RLU)” value in data set [6] (BrightGlo Buffer) is 279,889 RLU; in [6] (Detection Reagent Buffer), 40,917 RLU; in data set [8] (BrightGlo Buffer) it was 5,453,269 RLU; in [8] (Detection Reagent Buffer) it was 3,679,125 RLU; in [9] (BrightGlo Buffer) it was 2,255,088 RLU; in data set [9] (Detection Reagent Buffer), 109,120 RLU. The “DSF Tm (° C.)” value in data set [3] was found to be 69 °C. Moreover, the “Vmax (RLU) CS0333 BrightGlo Buffer” value in data set [7] (BrightGlo Buffer) is recorded as 3,882,620 RLU. Besides, the “Vmax (RLU) CS0333 Detection Reagent Buffer” value in data set [7] (Detection Reagent Buffer) was 3,127,710 RLU. Moreover, in [10] (BrightGlo Buffer), the “Vmax (RLU) CS0280 BrightGlo Buffer” value is reported as 1,931,470 RLU. The “Vmax (RLU) CS0280 Detection Reagent Buffer” value in data set [10] (Detection Reagent Buffer) was 117,973 RLU.

B2: MK0135: SEQ ID NO: 103; H244W+S193A+N228D+L305F+S306P+I109V+C38R+F55I+A316W+T342S+V348I (protein)
chain: B1 chain with I344A
Take B2: in [3], the “DSF Tm (° C.)” value is 78 °C. For the same molecule, the Km in data set [6] (BrightGlo Buffer) is 0.157 µM; in [6] (Detection Reagent Buffer) it was 0.746 µM; in data set [8] (BrightGlo Buffer), 43.4 µM; in data set [8] (Detection Reagent Buffer) it was 509 µM; in data set [9] (BrightGlo Buffer), 22 µM; in data set [9] (Detection Reagent Buffer) it was 150 µM. Moreover, the “Vmax (RLU)” value in [6] (BrightGlo Buffer) is on record as 490,914 RLU; in [6] (Detection Reagent Buffer), 93,531 RLU; in data set [8] (BrightGlo Buffer) it was 4,782,661 RLU; in data set [8] (Detection Reagent Buffer), 1,018,125 RLU; in [9] (BrightGlo Buffer) it was 343,822 RLU; in [9] (Detection Reagent Buffer), 15,983 RLU.
